Laboratory results taken from the supplement of paper PMC10567573.
± gives the standard deviation.

Assay: protein stability index of a GFP-peptide fusion (GPS, HEK-293T) (PSI 1-6); higher = more stable
[1] = treatment: DMSO, c terminus: a fixed tail appended
[2] = treatment: MLN4924 1 uM, 8 h, c terminus: a fixed tail appended
[3] = treatment: DMSO, c terminus: native
[4] = treatment: MLN4924 1 uM, 8 h, c terminus: native
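Also: 24-mer peptide tiles fused after GFP, lentivirally expressed, FACS-sorted into six equal bins by GFP/DsRed ratio, decoded by Illumina sequencing, PSI is the read-weighted mean bin number.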

Sequence	protein stability index [1]	protein stability index [2]	protein stability index [3]	protein stability index [4]
APPSTRTSHSLPESSVPSTVGCSS [PLEKHN1]	4.94 ± 0.45	5.23 ± 0.18	–	–
IYRKYRKLIESELSYFVIVYSVM [FBXO39]	–	–	2.87 ± 0.62	2.89 ± 0.44
RLCGRQVSRGPGVNVGTTALWKHL [ZBED2]	2.29 ± 0.36	2.17 ± 0.31	–	–
IRHQRIHTGEKPYTCHECGDSFSH [ZNF263]	2.62 ± 0.4	2.7 ± 0.36	–	–
FVAFAAKLWSFFIYLLRRQIRTVI [CTDNEP1]	3.29 ± 0.16	3.3 ± 0.31	–	–
VVYVKHQAQIDQYLGLVRTHINAV [RTN1]	2.22 ± 0.82	2.52 ± 0.48	–	–
LSSDRVANSSSEAPFPNVSTSLLT [ADAMTSL2]	4.17 ± 0.21	4.14 ± 0.29	–	–
TRGFLRSPSSDLDTDAEGDDFELL [RETREG3]	5.24 ± 0.17	5.29 ± 0.2	–	–
ENQLVRKQDVLGPSTTPPAHSSSN [SASS6]	5.19 ± 0.21	5.29 ± 0.069	–	–
REALTRLQELCYQWLRPHVSTKEQ [ZSCAN9]	1.99 ± 0.24	2.46 ± 0.32	–	–
QIPTQNTQARQVMEREFNNLLALG [PPFIA4]	3.56 ± 0.12	3.37 ± 0.21	–	–
SQEYQILLDVKTRLEQEIATYRRL [KRT16]	2.71 ± 0.34	2.88 ± 0.44	–	–
LRRKTPRHKQPTLLMVRASRRSGK [C6orf223]	3.61 ± 0.13	4.04 ± 0.22	–	–
QASKLRASKEEKEDWLSHALSRKK [FBF1]	4.5 ± 0.24	4.54 ± 0.26	–	–
SREKTACAINKVGVSFSTVENELM [FAM98B]	3.35 ± 0.28	3.63 ± 0.5	–	–
MSIMGNVLRFLPAFVRMKQLIEEG [GFOD1]	2.31 ± 0.43	2.42 ± 0.28	–	–
GMRYAFIGPLETMHLNAEGMLSYC [CRYL1]	2.56 ± 0.62	2.72 ± 0.74	–	–
GDESSLLLNAASTVARPVFTEYQA [RHOBTB3]	3.57 ± 0.29	3.52 ± 0.29	–	–
VELIPEKKGLFLKHVEYEVSSQRF [SNX8]	2.31 ± 0.27	2.46 ± 0.19	–	–
PWTKEEDQKVIELVKKYGTKQWTL [MYBL2]	2.61 ± 0.24	2.72 ± 0.16	–	–
IAMTSGTVQPKQDAFANFANFSK [CLINT1]	–	–	4.22 ± 0.22	4.17 ± 0.31
FAAPSPATTASPAKVDSSGVIDLF [SNAP91]	2.93 ± 0.38	3.25 ± 0.52	–	–

Sequence	protein stability index [1]	protein stability index [2]	protein stability index [3]	protein stability index [4]
MTLAANHELMLRFKDEYKSENIKL [CCDC89]	3.44 ± 0.17	3.72 ± 0.25	–	–
VEVMDETNCQKVLNMWCCCFFKRR [CSNK1G3]	3.21 ± 0.38	3.15 ± 0.39	–	–
DELQQSFQKSHNSLQRWEHLKKVA [PRIM1]	3.76 ± 0.38	3.88 ± 0.45	–	–
EELRKFSSLCYKQRIKSQERETEA [MOG]	4.47 ± 0.28	4.22 ± 0.076	–	–
YIWEKSIGNLVKILHGTRGELLLD [RBBP5]	2.65 ± 0.52	3.09 ± 0.29	–	–
TDVRGLEEFLSAMQSARGPTPSSP [PLEKHN1]	4.12 ± 0.16	4.14 ± 0.38	–	–
CQFRPPVRVNDGGGSHPSRPNSRH [VDR]	4.55 ± 0.34	4.77 ± 0.076	–	–
TFNPHKRISAFRALQHSYLHKDEG [CDK4]	2.87 ± 0.14	3.12 ± 0.09	–	–
GSWGSFQLPGLLNFGEFKCSDSDK [CLCN6]	3.99 ± 0.29	4.17 ± 0.57	–	–
LHTDVGSVRMRRAEKSVAPSNTGS [NEK8]	4.58 ± 0.22	4.73 ± 0.14	–	–
RADVDHAIEKAFQLWSNVTPLTFT [MMP1]	2.13 ± 0.2	2.44 ± 0.32	–	–
LLKTPWRAASAMQFFTKGYQETIS [GCH1]	2.19 ± 0.28	2.44 ± 0.18	–	–
DTQVNPVGSVSVDCGPSRADRCSP [FBXO34]	5.09 ± 0.32	5.15 ± 0.28	–	–
GGGLLKYSNLLVRDFRPTDQEEIK [TENT5C]	3.79 ± 0.32	3.75 ± 0.6	–	–
DNDHKEAVGKMGFVVTMLKLIQKK [ZER1]	2.21 ± 0.37	2.07 ± 0.34	–	–
ISEYEKSLQFDEKCLSIMLAEWEA [RPAIN]	2.34 ± 0.3	2.87 ± 0.33	–	–
GPSHPDTSYYIRYRGAVYADSGNF [FEM1C]	2.11 ± 0.45	2.54 ± 0.35	–	–
WGCDLGVVTRVVTGVYPRCLHASQ [BRF1]	2.89 ± 0.8	2.3 ± 0.46	–	–
FAQALGCVLYACFILGRLCVPVFA [SOAT2]	3.03 ± 0.6	2.64 ± 0.55	–	–
ALLEGEKALWEDKTSLWEEENALW [CCDC70]	3.41 ± 0.27	3.73 ± 0.33	–	–
QDFPVKKRKKLSTWKQELLKLMDR [ZNF75A]	2.5 ± 0.11	2.53 ± 0.17	–	–
CVLYACFILGRLCVPVFANMSREP [SOAT2]	3 ± 0.36	3.31 ± 0.21	–	–

Sequence	protein stability index [1]	protein stability index [2]	protein stability index [3]	protein stability index [4]
TAPSGGQWGAEPEGSCYQTFRQYC [RNF208]	2.75 ± 0.29	2.89 ± 0.18	–	–
ECLKKFNARRKLKGAILTTMLATR [CAMK2B]	2.98 ± 0.32	2.94 ± 0.29	–	–
EVANFYYEADCLAAAYGGKAAPAA [CEBPB]	2.91 ± 0.38	2.83 ± 0.38	–	–
EQLQGFNTRVRELAQAAGFAPQTG [DNAAF3]	3.66 ± 0.28	3.91 ± 0.67	–	–
LGALKPLPACEFEMGGSEGIVESI [NETO1]	4.28 ± 0.2	4.31 ± 0.25	–	–
QTLQALNFCHIHNCIHRDIKPENI [CDKL4]	2.47 ± 0.28	2.34 ± 0.26	–	–
VGRTEPELLVAHAYTRYLGDLSGG [HMOX1]	2.68 ± 0.16	2.48 ± 0.08	–	–
GASSLPTTMNYPLWSQSYEDSSNQ [MAGEA3]	4.42 ± 0.11	4.57 ± 0.15	–	–
KDARQWFAELSVDMEKILEIIRVI [CCNC]	2.24 ± 0.38	2.15 ± 0.35	–	–
LEEMILPLMVASAQSGERECHIVV [BTBD10]	2.35 ± 0.79	2.48 ± 0.48	–	–
TVGFLDEAIQPYRDRLRSRLEALS [TRIM15]	2.66 ± 0.27	2.77 ± 0.39	–	–
ETILNAFKMLDPDGKGKINKEYIK [MYL5]	2.96 ± 0.31	3.17 ± 0.41	–	–
RMTISLTVILIESTNEITYGLPIM [CLCN6]	2.98 ± 0.3	3.06 ± 0.092	–	–
GCLLDDGLEGLFEDIDTSMYDNEL [SERTAD1]	4.28 ± 0.48	4.32 ± 0.42	–	–
SSSFSNLDLSEEDSDDPSVTLELS [VDR]	5.35 ± 0.23	5.16 ± 0.28	–	–
KQYVLLSILLCLLASGLVVFFLFP [TMEM106C]	2.43 ± 0.28	2.56 ± 0.44	–	–
SSYVASIVDGGESRSEKGDSSRY [RBMY1A1]	–	–	4.35 ± 0.28	4.27 ± 0.35
FIYDCDPFTRRYYKEKFGITDLPR [EFHC1]	2.35 ± 0.37	2.15 ± 0.26	–	–
RIFRLPNNWYYISPRLTFQCLEDL [SLA]	2.53 ± 0.28	2.38 ± 0.39	–	–
RLGPYVLLEPEEGGRAYQALHCPT [TRIB3]	2.69 ± 0.1	2.87 ± 0.38	–	–
EALLKLLAGLTRPDVRPPLGRGLV [SEPHS2]	2.22 ± 0.45	2.32 ± 0.24	–	–
